Legend:
[1] = system: AGT receptor on CRL-7548 placental cells; assay: Competitive binding study (unlabeled AGT added at zero time); parameters: species or system human; conditions: prior addition of 100-fold excess of unlabeled AGT, FIG. 2
Experimental: (§1) Cell Culture: CRL-7548 placental cells obtained from American Type Culture Collection were cultured in 89% Dulbecco's modification of Eagle medium (DEME) (Cellgro, Herndon, Va.), 10% fetal bovine serum (FBS) (Sigma, St. Louis, Mo.), 1% penicillin-streptomycin (5,000 U/ml and 5,000 μg/ml) (Cellgro) in a humidified atmosphere of 5.0% CO2 and […] at 37° C. The cells were passed in FBS-free DEME before experimentation, seeded in 35 mm diameter plastic wells and cultured for two days to reach about 80-90% confluence.
(§2) Purified AGT was labeled with ^125I using iodobeads Pierce, Rockford, Ill.), 5 mCi/0.5 mg AGT in 0.1 mol/L sodium phosphate buffer, pH 6.0. The bound isotope was separated from the free isotope by gel filtration on Sephadex G-25.
(§3) Labeled AGT, 3 μg, was added to each well containing 1 ml DEME and 2-3×10^4 cells. The cells were harvested at 5 min, and 2, 4, 8, 16 and 24 h, washed five times with DEME, lysed in a buffer containing 0.1 mol/L Tris, 2 mmol/L EDTA, 1% Triton-X 100, 1 μmol/L DTT, pH 7.8, and the radioactivity of the whole lysate measured. Each experiment contained two duplicates and the reported values are the mean of two experiments. The results are presented graphically in FIG. 1
This Example was carried out as described in Example 1, except that a 100-fold excess of unlabeled AGT was added at zero time. The cells were harvested at 5 min, and 4, 8 and 24 h. […]

[2] = system: AGT receptor on CRL-7548 placental cells; assay: Competitive displacement study (unlabeled AGT added at 8 h); type: binding, human
Experimental: as §1, §2, §3
[…] The cells were harvested at 5 min and at 2 intervals through 18 h.

[3] = system: CRL-7548 placental cells; assay: Acid wash study (surface-bound versus internalized AGT); type: cell-based, human; conditions: for bound AGT removed from the cells by acid wash: 0.2 mol/L acetic acid, 0.5 mol/L NaCl, pH 2.5, 4° C., at 8 h
Experimental: as §1, §2, §3
This Example was carried out as described in Example 1. At 8 h, the cells in one set of duplicate wells were washed five times with DEME. Another set of duplicate samples were incubated with 0.2 mol/L acetic acid, 0.5 mol/L NaCl, pH 2.5, on ice (4° C.) for 6 min, and then washed five times with the acid wash. The control duplicates and the acid-washed duplicates were lysed and radioactivity was measured.

[4] = system: CRL-7458 fibroblasts; assay: AGT uptake in other placental cell lines; type: cell-based; conditions: fibroblasts from human placenta at 37 weeks gestation (CRL-7458)
Excerpt: (§4) The cells used in Examples 1-4 are fibroblasts originally derived from a human placenta obtained at 5 months gestation. Binding studies were also done with fibroblasts derived from a human placenta obtained at 37 weeks gestation (CRL-7458) and with fibroblasts derived from a human placenta at 40 weeks gestation (CRL-7459). These cells also took up AGT.

[5] = system: CRL-7459 fibroblasts; assay: AGT uptake in other placental cell lines; type: cell-based; conditions: fibroblasts from human placenta at 40 weeks gestation (CRL-7459)
Excerpt: as §4

[6] = system: AGT receptor on CRL-7548 placental cells; assay: AGT binding: 125I-labeled AGT bound by placental-derived cells; parameters: species or system human; conditions: 3 μg labeled AGT per well, 2-3×10^4 CRL-7548 cells, FIG. 1
Experimental: as §1
The AGT used in the Examples was purified from human plasma as described in Tewksbury (1983) Fed. Proc. 42:2724-2728; and Tewksbury et al. (1981) Biochem. Biophys. Res. Commun. 99:1311-1315. The specific Ang I content was 20 μg Ang I/mg protein. The theoretical value is 21 μg Ang I/mg protein.
as §2
as §3, with “Each experiment contained two duplicates and the reported values are the mean of two experiments. The results are presented graphically in FIG. 1” left out

[7] = from displacement by unlabeled AGT

B1: angiotensinogen (protein, UniProt P01019 25-476, looked up)
Angiotensinogen: DRVYIHPFHLVIHNESTCEQLAKANAGKPKDPTFIPAPIQAKTSPVDEKALQDQLVLVAAKLDTEDKLRAAMVGMLANFLGFRIYGMHSELWGVVHGATVLSPTAVFGTLASLYLGALDHTADRLQAILGVPWKDKNCTSRLDAHKVLSALQAVQGLLVAQGRADSQAQLLLSTVVGVFTAPGLHLKQPFVQGLALYTPVVLPRSLDFTELDVAAEKIDRFMQAVTGWKTGCSLMGASVDSTLAFNTYVHFQGKMKGFSLLAEPQEFWVDNSTSVSVPMLSGMGTFQHWSDIQDNFSVTQVPFTESACLLLIQPHYASDLDKVEGLTFQQNSLNWMKKLSPRTIHLTMPQLVLQGSYDLQDLLAQAELPAILHTELNLQKLSNDRIRVGEVLNSIFFELEADEREPTESTQQLNKPEVLEVTLNRPFLFAVYDQSATALHFLGRVANPLSTA
notes: AGT purified from human plasma; specific Ang I content 20 μg Ang I/mg protein
- decrease in maximal binding of 125I-AGT [1]: 54%
- bound 125I-AGT displaced ([2]; excess of unlabeled AGT added, FIG. 3): 70%
- share of AGT bound to an AGT-specific receptor [2, 7]: 70%
- share of total binding attributed to nonspecific binding [2, 7]: approximately 30%
- bound AGT removed from the cells by acid wash [3]: 46%
- bound AGT internalized by the cells ([3]; inferred from acid wash at 8 h): about half
- AGT uptake [4]: took up AGT
- AGT uptake [5]: took up AGT

B2: ^125I-AGT: Purified AGT labeled with ^125I using iodobeads (protein, UniProt P01019 25-476, looked up)
Angiotensinogen: DRVYIHPFHLVIHNESTCEQLAKANAGKPKDPTFIPAPIQAKTSPVDEKALQDQLVLVAAKLDTEDKLRAAMVGMLANFLGFRIYGMHSELWGVVHGATVLSPTAVFGTLASLYLGALDHTADRLQAILGVPWKDKNCTSRLDAHKVLSALQAVQGLLVAQGRADSQAQLLLSTVVGVFTAPGLHLKQPFVQGLALYTPVVLPRSLDFTELDVAAEKIDRFMQAVTGWKTGCSLMGASVDSTLAFNTYVHFQGKMKGFSLLAEPQEFWVDNSTSVSVPMLSGMGTFQHWSDIQDNFSVTQVPFTESACLLLIQPHYASDLDKVEGLTFQQNSLNWMKKLSPRTIHLTMPQLVLQGSYDLQDLLAQAELPAILHTELNLQKLSNDRIRVGEVLNSIFFELEADEREPTESTQQLNKPEVLEVTLNRPFLFAVYDQSATALHFLGRVANPLSTA
modifications: 125I label
notes: Purified AGT labeled with ^125I using iodobeads
- time to saturation of binding by placental-derived cells [6]: 2 to 4 h
- bound AGT removed from the cells by acid wash [3]: 46%
